Assay results: the DeepSol protein solubility set

Assay: soluble on expression in E. coli; label from the status in PepcDB or PDB records

Row | Sequence | soluble on expression in E. coli
1 | SLRAKNQLFLLSPHYLRQVKESSGSRLIQQRLLHQQQPLHPEWAALAKKQLKGKNPEDLIWHTPEGISIKPLYSKRDTMDLPEELPGVKPFTRGPYPTMYTFRPWTIRQYAGFSTVEESNKFYKDNIKAGQQGLSVAFDLATHRGYDSDNPRVRGDVGMAGVAIDTVEDTKILFDGIPLEKMSVSMTMNGAVIPVLANFIVTGEEQGVPKEKLTGTIQNDILKEFMVRNTYIFPPEPSMKIIADIFEYTAKHMPKFNSISISGYHMQEAGADAILELAYTLADGLEYSRTGLQAGLTIDEFAPRLSFFWGIGMNFYMEIAKMRAGRRLWAHLIEKMFQPKNSKSLLLRAHCQTSGWSLTEQDPYNNIVRTAIEAMAAVFGGTQSLHTNSFDEALGLPTVKSARIARNTQIIIQEESGIPKVADPWGGSYMMECLTNDVYDAALKLINEIEEMGGMAKAVAEGIPKLRIEECAARRQARIDSGSEVIVGVNKYQLEKEDTVEVLAIDNTSVRNRQIEKLKKIKSSRDQALAERCLAALTECAASGDGNILALAVDASRARCTVGEITDALKKVFGEHKANDRMVSGAYRQEFGESKEITSAIKRVHKFMEREGRRPRLLVAKMGQDGHDRGAKVIATGFADLGFDVDIGPLFQTPREVAQQAVDADVHAVGVSTLAAGHKTLVPELIKELNSLGRPDILVMCGGVIPPQDYEFLFEVGVSNVFGPGTRIPKAAVQVLDDIEKCLEKKQQSV | not soluble
2 | SLREHLMSIEVANESGIDVSEAELVSVARFVIAKMDVNPCAELSMLLLDTAAMADLHMRWMDLPGPTDVMSFPMDELEPGGRPDAPEPGPSMLGDIVLCPEFAAEQAAAAGHSLGHELALLTIHGVLHLLGYDHAEPDEEKEMFALQDRLLEEWVADQVEAYQHDRQDEKDRRLLDKSRYFDL | not soluble
3 | SLRSFEAPNGVAFASIGDTGAANSNQAKCGISLAALSVALDIKFVNLLGDNLYPHGVTSAVDPLWQSAFEVPFGAPSLQKVAFFPVLGNHDYHLDPYAQIDRCIRLGNEHLNFTEKEKTDGSRPQLSKTYQMQAMLPWMKIHHEKFRYSFDQTTKMHGLDGPRWRLPNFWYFTRHVFRNVPRHVKNPFVTGASISDISLVSTEEDKTDVTVVTIYIDSMVLLLEEGSKSSSIRYRFPRDELYYRHLEFLEDTLKAATREADWIFIAGHHPVVNYSVRNAKPSDFAVRLTELMRKYKVDTFLSGHEHALSFFQEPDANTTHIISGTGSKLSARDPIPSKDCLFSVREHGVAVHVLGKEELHHGFVSADGKVLFTASQRRQDRT | soluble
4 | SLRYASDFEEIAVLGQGAFGQVVKARNALDSRYYAIKKIRHTEEKLSTILSEVMLLASLNHQYVVRYYAAWLERRNFVKPMTAVKKKSTLFIQMEYCENRTLYDLIHSENLNQQRDEYWRLFRQILEALSYIHSQGIIHRDLKPMNIFIDESRNVKIGDFGLAKNVHRSLDILKLDSQNLPGSSDNLTSAIGTAMYVATEVLDGTGHYNEKIDMYSLGIIFFEMIYPFSTGMERVNILKKLRSVSIEFPPDFDDNKMKVEKKIIRLLIDHDPNKRPGARTLLNSGWLPVKHQDEVIKEALKSL | soluble
5 | SLSAKDKANVKAIWGKILPKSDEIGEQALSRMLVVYPQTKAYFSHWASVAPGSAPVKKHGITIMNQIDDCVGHMDDLFGFLTKLSELHATKLRVDPTNFKILAHNLIVVIAAYFPAEFTPEIHLSVDKFLQQLALALAEKYR | soluble
6 | SLSCRKEQGKFYDHLLRDCISCASICGQHPKQCAYFCENKLR | soluble
7 | SLSQIKVLIVDDARFIRDHVTRIVKEHFPEYQIDAAEDGDDGQKAMSKVDYDLILCDWEMPGKSGLELLTWARSQPHYADIPFVMVTEG | soluble
8 | SLSSTVSYWILNSTRNSIATLQGGRRLYSRYVSNRNKLKWRLFSRVPPTLNSSPCGGFTLCKAYRHTSTEEDDFHLQLSPEQINEVLRAGETTHKILDLESRVPNSVLRFESNQLAANSPVEDRRGVASCLQTNGLMFGIFDGHGGHACAQAVSERLFYYVAVSLMSHQTLEHMEGAMESMKPLLPILHWLKHPGDSIYKDVTSVHLDHLRVYWQELLDLHMEMGLSIEEALMYSFQRLDSDISLEIQAPLEDEVTRNLSLQVAFSGATACMAHVDGIHLHVANAGDCRAILGVQEDNGMWSCLPLTRDHNAWNQAELSRLKREHPESEDRTIIMEDRLLGVLIPCRAFGDVQLKWSKELQRSILERGFNTEALNIYQFTPPHYYTPPYLTAEPEVTYHRLRPQDKFLVLASDGLWDMLSNEDVVRLVVGHLAEADWHKTDLAQRPANLGLMQSLLLQRKASGLHEADQNAATRLIRHAIGNNEYGEMEAERLAAMLTLPEDLARMYRDDITVTVVYFNSESIGAYYKGG | not soluble
9 | SLTLPQTERQYLSGHGCDDMVEWDFFCTDGRNSGKWTKIGVPSCWELQGFGTYQYGITFYGKAFPEGIADEKGMYKYEFEVPEKFRGQQVNLVFEASMTDTEVKVNGRKVGSKHQGAFYRFSYNVTDFLKYGKKNLLEVTVSKESENASVNLAERRADYWNFGGIFRPVFLEVKPAINLRHIAIDAQMDGSFRANCYTNLSNDGMSIRAQILDNKGKKLTETTVPVKAGGDWTSLQLKVSDPALWTAETPNLYKAQFSLLDKDGKVLHNETETFGFRTIEVRESDGLYVNGVRIMVRGVNRHSFRPESGRTLSKAKNIEDVLLMKDMNMNSVRLSHYPADPEFLEACDSLGLYVMDELGGWHGKYDTPTGVRLIKGMIERDVNHPSIIWWSNGNEKGWNTELDGEFHKYDPQKRPVIHPQGNFSGFETMHYRSYGESQNYMRLPEIFMPTEFLHGLYDGGHGAGLYDYWEMMRKHPRCIGGFLWVLADEGVKRVDMDGFIDNQGNFGADGIVGPHHEKEGSFYTIKQLWSPVQIMNTSVDKQFDGKFSVENRYDYLNLNTCRFLWKQVKFPTATDASNTTAQVLKQGEVQGSDVAAHSAGVLDIKTTILPDADALFLTAIDRYGHELWRWTFPVNKLNQANEVLSPLSNEG | soluble
10 | SLVLMSETKNELEDLLEKAATEPAHRPAFFRTLLESTVWVPGTAAQGEAVVEDSALDLQHWEKEDGTSVIPFFTSLEALQQVVEDEQAFVVMPVRTLFEMTLGETLFLNAKLPTGKEFMPREISLLIGEEGNSLSSQEVLEGGESLILSEVAEPPVQMIDSLTTLFKTIKPVKRAFICLIKESEEAQPNLLIGIEADGDIEEIIQAAGSVATDTLPGDEPIDICQVKKGEKGISHFITEHIAPFYERRWGGFLRDFKQNRII | soluble
11 | SLVSSMHDLLLRNVRPMAGEACDIMIRNGKITGFGKFDAEPGLPVEDGKGAIAVPGLIDAHTHLDKTTWGMPWHVNNRAAILRERIDFERENRVQIGIDPHRQSMRHAIGLAANGGTHIRSHVDIDPTHGLKLVEGIWETREKLDGIIDIEVVAFPQSGVMVMPGTVELLDEALKQGCEVLGGIDPCGIDRDPKGQLDILFQLATKHGVPIDIHLHEAADLGAFTMELIFERIRANGMQGNVAISHAFALGMNDYLRVGRLIDEIARLDVAILTTGAPSASVPSIMRLKEAGVRVGGGCDGIRDTWGPWGQPDMLDRAKIIGMKNGLRSDVELAHVLHVVSRGGADVMGIEDYGMEIGCAADFTLLTGETLAHAVVDITPRPLVVKGGRVTARNGKAIVEAP | soluble
12 | SMHPVAGSNPAFCGPGKPSCLNEDAMRAADQFDLYSSQQNKYSHTVSHKPMVCQRQDPLNETHLQPTSGRNIEIKDELKKKKNLNRSGKRGRPSGTTKSAGYRTSTGRPLGTTKAAGFKTSPGRPLGTTKAAGYKVSPGRPPGSIKALSRLADLGYGCGTAAFPYPMMHSRVVHGLQETSGEVKPPSE | soluble
13 | SMSRPDQAARRRAIAAELHVSPTFDARDEAERRIGFVADYLRTAGLRACVLGISGGIDSSTAGRLAQLAVERLRASGYDARFVAMRLPYGAQHDEADARRALAFVRADETLTVDVKPAADAMLAALAAGGLAYLDHAQQDFVLGNIKARERMIAQYAVAGARNGVVIGTDHAAESVMGFFTKFGDGGADVLPLAGLTKRRVRALARMLGADEPLVLKTPTADLETLRPQRPDEHAYGITYEQIDDFLEGKPMDDAVAETVLRFYDATRHKRALPYTMFDWPGHPA | soluble
14 | SNAASATETNTAPSADTQAPKPVNTVTSDVDCSVSAAWGLYKFNQKSNFSAEFEMPESVKAGTGFDALIKIKDISVSNDNLSGYKNAKLTKSSIRINVGKNVKLDGNQPGLSLSNGVLSINDHLKASLEGNSLRISAAPITVRLQALTEGTLTFIPEKTILTNTASVDGYTANTTCTTNADKPFATVKVDPADGLTITAPESASIKQDVQITATVPEKLNEKMDGKVQFFVNHIAAGDPVPVTEDNKASTSIIFDTSGSKTITARFIDAEGYNPAPDGETIIPVVTELDTKKPEDTDSYTGLINGSATSLLKPAKVMPGEKVSVSASLLPNKAPIRVYEIGINAPEDVKYIDGTGKTNYSSKLATTGSVFSSPGSGYYDPEWKNESKKPNESYRGFHSDTSYSVVDTSPQTVSAEFEIPKTLAPGIYMFQMGVYKYSNSLKDLVSIPETAFEIAGPDLPALPERKIKPQPEETPEVSDGSSTAKLVKSP | soluble
15 | SNAKKVCVDTCVVIDGRITELIERGKLKDATIIIPEAVVSELEYQANMGREIGYKGIEELRKLIEKASEHNIKVEYYGERPTREEIFLAKSGEIDAMIRKVAKETNSILLTSDWIQYNLAKAQGIEAYFLEAAEEEVELVLD | soluble
16 | SNAMITKAIYPGTFDPITNGHLDLVTRASAMFSHVILAIADSSSKKPMFTLDERVALAKKVTAPLKNVEVLGFSELMAEFAKKHNANILVRGLRSVSDFEYEWQLANMNRHLMPKLESVFLIPSEKWSFISSSLVKEVARHGGDITPFLPKPVTKALLAKLA | soluble
17 | SNAMKELIKEHQKDINPALQLHDWVEYYRPFAANGQSANYIPALGKVNDSQLGICVLEPDGTMIHAGDWNVSFTMQSISKVISFIAACMSRGIPYVLDRVDVEPTGDAFNSIIRLEINKPGKPFNPMINAGALTIASILPGESAYEKLEFLYSVMETLIGKRPRIHEEVFRSEWETAHRNRALAYYLKETNFLEAEVEETLEVYLKQCAMESTTEDIALIGLILAHDGYHPIRHEQVIPKDVAKLAKALMLTCGMYNASGKYAAFVGVPAKSGVSGGIMALVPPSARREQPFQSGCGIGIYGPAIDEYGNSLTGGMLLKHMAQEWELSIF | soluble
18 | SNAMKRKVQVKNITIGEGRPKICVPIIGKNKKDIIKEAKELKDACLDIIEWRVDFFENVENIKEVKEVLYELRSYIHDIPLLFTFRSVVEGGEKLISRDYYTTLNKEISNTGLVDLIDVELFMGDEVIDEVVNFAHKKEVKVIISNHDFNKTPKKEEIVSRLCRMQELGADLPKIAVMPQNEKDVLVLLEATNEMFKIYADRPIITMSMSGMGVISRLCGEIFGSALTFGAAKSVSAPGQISFKELNSVLNLLHKSIN | soluble
19 | SNAMLFCDDSKKYLKEQNINLKNEFDKDDKRVEKFSLKHQNIYFDYSKNLINDYILKSLLESAEKSSLKDKIKQMFNGAKINSTEHRAVLHTALRDLSSTPLIVDGQDIRQEVTKEKQRVKELVEKVVSGRWRGFSGKKITDIVNIGIGGSDLGPKMVVRALQPYHCTDLKVHFVSNVDADSLLQALHVVDPETTLLIIASKSFSTEETLLNSISAREWLLDHYEDEKAVANHFVAISSKLDKVKEFGIDLEHCYKMWDWVGGRYSLWSSIGMSIAFAIGYDNFEKLLAGAYSVDKHFKETEFSKNIPVIMALLASYYSCTYNSQSQALLPYDERLCYFVDYLQQADMESNGKSVNIAGETVNYQTGVVLWGGVGTNGQHAFHQLLHQGNIFIPVDFIAIATSHHNYDNHQQALLANCFAQSQALMFGQSYDMVYNELLKSGLNETQAKELAAHKVIPGNRPSTTILLDELSPYSLGALIALYEHKIFVQGVLWDINSYDQWGVELGKKLGKNILKAMNDDSSDEYQNLDDSTRQLIAKVKNK | soluble
20 | SNAMNHTADNCIFCKIIDGQILCSKVYEDEHVLAFLDISQVTKGHTLVIPKVHKQDIFALTPEIASHIFSVVPKIANAIKAEFNPVGFNLLNNNGEKAGQTVFHFHLHLIPRYGENDGFGAVWKSHQNEYTMENLQNIASTIANSVK | soluble
